According to article PMC8869672:

Molecular target: T1, NADPH-cytochrome P450 reductase (human (endogenous in human liver microsomes)) (UniProt P16435)
T1 sequence: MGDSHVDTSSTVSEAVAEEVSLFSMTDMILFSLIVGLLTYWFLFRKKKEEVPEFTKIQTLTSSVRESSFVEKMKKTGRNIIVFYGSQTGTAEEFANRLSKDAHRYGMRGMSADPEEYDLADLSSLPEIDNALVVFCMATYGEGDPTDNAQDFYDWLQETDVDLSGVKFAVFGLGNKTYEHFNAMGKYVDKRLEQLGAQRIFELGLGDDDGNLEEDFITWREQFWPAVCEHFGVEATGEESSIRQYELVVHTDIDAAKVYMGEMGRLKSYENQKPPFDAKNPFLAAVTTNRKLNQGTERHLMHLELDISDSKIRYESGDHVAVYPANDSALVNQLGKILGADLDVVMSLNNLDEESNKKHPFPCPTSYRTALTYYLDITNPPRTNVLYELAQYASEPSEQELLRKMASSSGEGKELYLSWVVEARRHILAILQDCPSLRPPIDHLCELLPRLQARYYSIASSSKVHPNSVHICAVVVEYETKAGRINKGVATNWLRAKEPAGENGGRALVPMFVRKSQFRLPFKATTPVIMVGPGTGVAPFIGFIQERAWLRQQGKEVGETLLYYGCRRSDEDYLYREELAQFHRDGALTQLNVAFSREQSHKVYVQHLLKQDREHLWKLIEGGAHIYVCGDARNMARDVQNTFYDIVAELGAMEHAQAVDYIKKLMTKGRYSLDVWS

**Q.** How did the Vmax of 7-EFC deethylation by CYP2E1-BPM incorporated into insect cell microsomes with cDNA-expressed human CPR and cytochrome b5 (SS(CPR+b5)2E1-BPM), normalised per CPR turn out when “C-terminally His-tagged and N-terminally truncated Δ3–20 CYP2E1 modified with benzophenone-4-maleimide (BPM) or 4-(N-succinimidylcarboxy)benzophenone (BPS) (from UniProt P05181 1-493) (enzyme)” was run?
**A.** Its Vmax of 7-EFC deethylation by CYP2E1-BPM incorporated into insect cell microsomes with cDNA-expressed human CPR and cytochrome b5 (SS(CPR+b5)2E1-BPM), normalised per CPR is 0.104 s⁻¹.

**Q.** What about the Vmax of 7-EFC deethylation by CYP2E1-BPS incorporated into insect cell microsomes with cDNA-expressed human CPR and cytochrome b5 (SS(CPR+b5)2E1-BPS), normalised per CPR of the same substance?
**A.** The Vmax of 7-EFC deethylation by CYP2E1-BPS incorporated into insect cell microsomes with cDNA-expressed human CPR and cytochrome b5 (SS(CPR+b5)2E1-BPS), normalised per CPR was 1.51 s⁻¹.
